Data reported in patent US20250179205A1 (Hoffmann-La Roche, published 2025).

Key:
[1] = molecular target: T1, mouse fibroblast activation protein (mFAP) (mouse, UniProt P97321 1-761); experiment: flow cytometry on NIH/3T3-mFAP cells (3T3_mFAP), PE-labelled anti-human IgG Fcgamma F(ab')2 secondary, MFI baseline corrected
T1 construct: expressed on transfected NIH/3T3-mFAP clone 26 cells; also called murine FAP; mouse FAP
Description: (§1) NIH/3T3-huFAP clone 19 and NIH/3T3-mFAP clone 26 were generated by the transfection of the mouse embryonic fibroblast NIH/3T3 cell line (ATCC CRL-1658) with the expression vector pETR4921 to express under 1.5 μg/mL Puromycin selection huFAP or mFAP, respectively.
(§2) NIH/3T3-huFAP, NIH/3T3-mFAP or NIH/3T3-wt cells were cultured with 1× Dulbecco's Modified Eagle's Medium (DMEM) (Gibco, Cat. No. 42430-025) supplemented with 10% Fetal Bovine Serum (FBS) (life technologies, Cat. No. 16140, Lot No. 1797306A). For the NIH/3T3-huFAP and NIH/3T3-mFAP cells 1.5 μg/mL Puromycin (Gibco, Cat. No. A11138-03) was added to the medium for selection of FAP-expressing cells. NIH/3T3 cells were removed from the plate by using enzyme-free Cell Dissociation Buffer (Gibco, Cat. No. 13151014). 0.3×10⁵ NIH/3T3-huFAP clone 19, NIH/3T3-mFAP clone 26 or NIH/3T3-wt were added in 200 μl of 1×DMEM 10% FBS to each well of a round-bottom 96-well plate (Greiner Bio-One, CELLSTAR®, Cat. No. 650185). Plates were centrifuged 5 minutes at 1700 rpm and supernatants were flicked off. Cells were washed once with 200 μL of 4° C. cold FACS buffer (eBioscience, Cat. No. 00-4222-26). All samples were resuspended in 50 μL/well of 4° C. cold FACS buffer containing the bispecific antigen binding molecules (primary antibody) or isotype control antibody DP47 at the indicated range of concentrations (in duplicates) and incubated for 120 minutes at 4° C. Afterwards the cells were washed three times with 200 μL 4° C. cold FACS buffer. Cells were further stained with 25 μL/well of 4° C. cold secondary antibody solution (1:50 dilution of secondary antibody) containing R-Phycoerythrin (PE) conjugated AffiniPure F(ab′)₂ Fragment Goat Anti-Human IgG, Fcγ Fragment Specific (Jackson ImmunoResearch, Cat. No. 109-116-098) and incubated for 60 minutes at 4° C. in the dark. Cells were washed with 200 μl FACS buffer and resuspended in 85 μL/well FACS-buffer containing 0.2 μg/mL DAPI (Roche, Cat. No. 10236276001) and acquired the same day using 5-laser LSR-Fortessa (BD Bioscience with DIVA software). Data analysis was performed using the FlowJo version 10 software (FlowJo LLC).

[2] = molecular target: T2, His-tagged human dimeric FAP (recombinant FAP_ECD) (human, UniProt Q12884 27-760); experiment: method not stated; SPR as in Example 5.3.2 presumed
T2 construct: also called hu FAP ectodomain + poly-lys-tag + his6-tag

[3] = molecular target: T3, human fibroblast activation protein (huFAP) (human, UniProt Q12884 1-760); experiment: flow cytometry, NIH/3T3-huFAP clone 19 cells, PE anti-human Fc F(ab')2
T3 construct: expressed on transfected NIH/3T3-huFAP clone 19 cells; also called human FAP
Description: as §1, §2

[4] = molecular target: T2, His-tagged human dimeric FAP …; experiment: SPR (Biacore T200), His-tagged dimeric huFAP ECD captured by anti-His, antibody as analyte, 1:1 fit (avidity)
Description: The capacity of the bispecific constructs to bind human FAP was assessed by surface plasmon resonance (SPR). All SPR experiments were performed on a BIACORE® T200 (BIACORE®) at 25° C. with HBS-EP as running buffer (0.01 M HEPES pH 7.4, 0.15 M NaCl, 3 mM EDTA, 0.005% Surfactant P20, (BIACORE®).
His-tagged human dimeric FAP (recombinant FAP_ECD) was captured on a CM5 chip (GE Healthcare) immobilized with anti-His antibody (Qiagen Cat. No. 34660) by injection of 500 nM huFAP for 60 s at a flow rate of 10 uL/min, 10 nM murine FAP for 20 s at a flow rate of 20 uL/min and 10 nM cynoFAP for 20 s at a flow rate of 20 uL/min. Immobilization levels for the anti-His antibody of up to 18000 resonance units (RU) were used. Following the capture step, the bispecific antibodies as well as control molecules were immediately passed over the chip surface at a concentration ranging from 0.78-100 nM with a flow rate of […] for 280 s and a dissociation phase of 180 s. Bulk refractive index differences were corrected for by subtracting the response obtained in a reference flow cell, where no FAP was immobilized. Avidity was determined using the Langmuir 1:1 curve fitting. For bivalent binding the same 1:1 fitting was used leading to an apparent KD value.

human CD40 [5] = molecular target: T4, human CD40 (human, UniProt P25942 21-277); experiment: cell-based or functional assay
T4 sequence (P25942 21-277 limits assumed): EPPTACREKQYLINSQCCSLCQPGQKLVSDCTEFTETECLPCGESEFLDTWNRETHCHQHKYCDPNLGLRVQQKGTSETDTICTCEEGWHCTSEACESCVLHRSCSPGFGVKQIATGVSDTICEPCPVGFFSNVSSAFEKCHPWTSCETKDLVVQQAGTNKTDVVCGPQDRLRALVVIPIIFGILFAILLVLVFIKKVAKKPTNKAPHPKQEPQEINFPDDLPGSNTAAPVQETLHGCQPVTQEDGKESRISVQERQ

human CD40 [6] = molecular target: T4, human CD40; experiment: flow cytometry, Daudi cells, PE anti-human Fc F(ab')2
Description: The binding to cell surface CD40 was tested using Daudi cells, a human B lymphoblast cell line with high expression levels of human CD40 (ATCC CCL-213). Daudi cells were cultured with 1× Dulbecco's Modified Eagle's Medium (DMEM) (Gibco, Cat. No. 42430-025) supplemented with 10% Fetal Bovine Serum (FBS) (life technologies, Cat. No. 16140, Lot No. 1797306A). 0.3×10⁵ Daudi cells were added in 200 μl of 1×DMEM with 10% FBS to each well of a round-bottom 96-well plate (Greiner Bio-One, CELLSTAR®, Cat. No. 650185). Plates were centrifuged 5 minutes at 1700 rpm and supernatants were flicked off. Cells were washed once with 200 μL of 4° C. cold FACS buffer (eBioscience, Cat. No. 00-4222-26). All samples were resuspended in 50 μL/well of 4° C. cold FACS buffer containing the bispecific antigen binding molecules (primary antibody) or isotype control antibody DP47 at the indicated range of concentrations (in duplicates) and incubated for 120 minutes at 4° C. Afterwards the cells were washed three times with 200 μL 4° C. cold FACS buffer. Cells were further stained with 25 μL/well of 4° C. cold secondary antibody solution (1:50 dilution of secondary antibody) containing R-Phycoerythrin (PE) conjugated AffiniPure F(ab′)₂ Fragment Goat Anti-Human IgG, Fcγ Fragment Specific (Jackson ImmunoResearch, Cat. No. 109-116-098) and incubated for 60 minutes at 4° C. in the dark. Cells were washed with 200 μl FACS buffer and resuspended in 85 μL/well FACS-buffer containing 0.2 μg/mL DAPI (Roche, Cat. No. 10236276001) and acquired the same day using a 5-laser LSR-Fortessa (BD Bioscience with DIVA software). Data analysis was performed using the FlowJo version 10 software (FlowJo LLC).

human CD40 [7] = molecular target: T4, human CD40; experiment: cell-based or functional assay; remark: listed apart in the source
human CD40 [8] = molecular target: T4, human CD40; experiment: cell-based or functional assay; remark: listed apart in the source
[9] = molecular target: T5, Human CD40 extracellular domain with C-terminal His-AviTag (human); experiment: SPR (Biacore), antibody captured by anti-human F(ab')2, CD40 ECD as analyte, 1:1 model
T5 construct: analyte in solution in the SPR assays; also called recombinant human CD40_ECD
T5 sequence (chain, as listed by the source limits assumed): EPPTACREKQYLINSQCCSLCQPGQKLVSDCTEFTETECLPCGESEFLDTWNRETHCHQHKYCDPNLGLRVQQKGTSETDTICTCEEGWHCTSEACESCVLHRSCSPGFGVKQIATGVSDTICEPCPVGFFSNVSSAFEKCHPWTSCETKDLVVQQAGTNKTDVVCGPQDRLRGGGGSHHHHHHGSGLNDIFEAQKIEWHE
Description: Around 12000 resonance units (RU) of the capturing system (10 μg/ml goat anti human F(ab)′₂; Order Code: 28958325; GE Healthcare Bio-Sciences AB, Sweden) were coupled on a CM5 chip (GE Healthcare BR-1005-30) at pH 5.0 by using an amine coupling kit supplied by the GE Healthcare. The sample and system buffer was PBS-T (10 mM phosphate buffered saline including 0.05% Tween20) pH 7.4. The flow cell was set to 25° C.—and the sample block set to 12° C.—and primed with running buffer twice. The antibody was captured by injecting a 50 nM solution for 30 sec at a flow of 5 μl/min. Association was measured by injection of human CD40 extra cellular domain or cynomolgus monkey CD40 extracellular domain in various concentrations in solution for 300 sec at a flow of 30 μl/min starting with 300 nM in 1:3 dilutions. The dissociation phase was monitored for up to 1200 sec and triggered by switching from the sample solution to running buffer. The surface was regenerated by 60 sec washing with a Glycine pH 2.1 solution at a flow rate of 30 μl/min. Bulk refractive index differences were corrected by subtracting the response obtained from a goat anti human F(ab′)₂ surface. Blank injections are also subtracted (=double referencing). For calculation of apparent KD and other kinetic parameters the Langmuir 1:1 model was used. The apparent Kd was calculated using the BIACORE® B4000 evaluation software (version 1.1).

human CD40 [10] = molecular target: T4, human CD40; experiment: flow cytometry, Raji cells, Alexa488 anti-huIgG
Description: CD40 positive cells (Raji cells) were detached from the culture bottle using Trypsin and were counted using a Casy cell counter. After pelleting at 4° C., the cells were resuspended in FACS Buffer (2.5% FCS in PBS), adjusted to 2.0E+06 cells/mL, and dispensed to 96-well PP V-bottom-plates (25 μL/well=5.0E+04Zellen/well).
The CD40 specific antibodies were adjusted to 20 μg/mL in FACS buffer, resulting in a final concentration of 10 μg/mL. […] were added to 25 μl cell suspension and incubated for 1 h at 4° C. The cells were then washed twice in FACS buffer. After washing, the cells were resuspended in 50 μL FACS-buffer containing secondary antibody (<huIgG>-Alexa488, c=10 μg/mL) and incubated 1 h at 4° C. The cells were then washed twice in FACS buffer and resuspended in 70 μl/well FACS buffer for measurement using a FACS Canto (BD, Pharmingen).

T1 sequence (P97321 whole entry): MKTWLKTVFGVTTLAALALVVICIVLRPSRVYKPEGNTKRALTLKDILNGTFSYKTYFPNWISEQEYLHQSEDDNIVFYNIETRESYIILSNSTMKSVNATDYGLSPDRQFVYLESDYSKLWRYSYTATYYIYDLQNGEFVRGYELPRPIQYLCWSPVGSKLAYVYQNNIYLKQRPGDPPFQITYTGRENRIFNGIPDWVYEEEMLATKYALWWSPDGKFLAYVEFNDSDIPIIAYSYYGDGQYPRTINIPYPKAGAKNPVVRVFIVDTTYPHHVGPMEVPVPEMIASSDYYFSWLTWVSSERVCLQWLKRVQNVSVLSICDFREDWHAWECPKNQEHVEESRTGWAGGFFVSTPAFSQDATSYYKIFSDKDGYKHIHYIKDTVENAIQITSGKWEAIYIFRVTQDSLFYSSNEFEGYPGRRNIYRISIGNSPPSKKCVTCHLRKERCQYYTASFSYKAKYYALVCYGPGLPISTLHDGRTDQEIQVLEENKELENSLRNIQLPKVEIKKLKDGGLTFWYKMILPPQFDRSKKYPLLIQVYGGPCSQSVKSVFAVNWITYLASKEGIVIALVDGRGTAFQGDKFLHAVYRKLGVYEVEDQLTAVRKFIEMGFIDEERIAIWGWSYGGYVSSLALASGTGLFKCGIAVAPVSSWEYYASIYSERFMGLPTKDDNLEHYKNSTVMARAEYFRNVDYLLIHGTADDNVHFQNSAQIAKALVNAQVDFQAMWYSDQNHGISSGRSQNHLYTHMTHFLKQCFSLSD

Row | EC50 (read off the curve) [1] | Kd [2] | EC50 [3] | Kd [4] | koff [4] | kon [4] | EC50, activation of human B cells with FAP-coated Dynabeads, increase of CD86 expression (human CD40 [5]) | binding result [1] | EC50 (human CD40 [6]) | EC50, activation of HEK-Blue CD40L cells (SEAP) with murine FAP-coated Dynabeads (human CD40 [7]) | EC50, activation of human Daudi cells (CD70 expression) with FAP-coated Dynabeads (human CD40 [8]) | Kd [9] | koff [9] | kon [9] | EC50 (human CD40 [10]) | Binder
1 | ~8 nM | 1.5 nM | 7.99 nM | 6 nM | 0.00174 s⁻¹ | 291000 M⁻¹ s⁻¹ | – | – | – | – | – | – | – | – | – | P1AE0408 CD40 × FAP (28H1) (2 + 1) head to tail (bispecific antibody, human IgG1, kappa, L234A L235A, a CD40 Fab fused to the N-terminus of the FAP crossFab on the knob chain; also called CD40 × FAP 2 + 1 head-to-tail; 2 + 1 head-to-tail format) heavy 1: not shown heavy 2: EVQLVESGGGLVQPGGSLRLSCAASGYSFTGYYIHWVRQAPGKGLEWVARVIPNAGGTSYNQKFKGRFTLSVDNSKNTAYLQMNSLRAEDTAVYYCAREGIYWWGQGTLVTVSSASTKGPSVFPLAPSSKSTSGGTAALGCLVEDYFPEPVTVSWNSGALTSGVHTFPAVLQSSGLYSLSSVVTVPSSSLGTQTYICNVNHKPSNTKVDEKVEPKSCDKTHTCPPCPAPEAAGGPSVFLFPPKPKDTLMISRTPEVTCVVVDVSHEDPEVKFNWYVDGVEVHNAKTKPREEQYNSTYRVVSVLTVLHQDWLNGKEYKCKVSNKALGAPIEKTISKAKGQPREPQVCTLPPSRDELTKNQVSLSCAVKGFYPSDIAVEWESNGQPENNYKTTPPVLDSDGSFFLVSKLTVDKSRWQQGNVFSCSVMHEALHNRFTQKSLSLSPGK light 1: DIQMTQSPSSLSASVGDRVTITCRSSQSLVHSNGNTFLHWYQQKPGKAPKLLIYTVSNRFSGVPSRFSGSGSGTDFTLTISSLQPEDFATYFCSQTTHVPWTFGQGTKVEIKRTVAAPSVFIFPPSDRKLKSGTASVVCLLNNFYPREAKVQWKVDNALQSGNSQESVTEQDSKDSTYSLSSTLTLSKADYEKHKVYACEVTHQGLSSPVTKSFNRGEC light 2: EVQLLESGGGLVQPGGSLRLSCAASGFTFSSHAMSWVRQAPGKGLEWVSAIWASGEQYYADSVKGRFTISRDNSKNTLYLQMNSLRAEDTAVYYCAKGWLGNFDYWGQGTLVTVSSASVAAPSVFIFPPSDEQLKSGTASVVCLLNNFYPREAKVQWKVDNALQSGNSQESVTEQDSKDSTYSLSSTLTLSKADYEKHKVYACEVTHQGLSSPVTKSFNRGEC
2 | – | – | – | – | – | – | 0.072 nM | no binding (tested: 500 nM) | 0.104 nM | 0.125 nM | 0.756 nM | 4.6 nM | 0.00781 s⁻¹ | 1.69e+06 M⁻¹ s⁻¹ | 0.09 µg/mL | P1AD4470 CD40 IgG (antibody, V domains shown, bivalent anti-human CD40 IgG1; cross-linked with anti-human Fc F(ab')2 in the functional assays; also called CD40 IgG1 PGLALA; CD40 IgG1) VH: EVQLVESGGGLVQPGGSLRLSCAASGYSFTGYYIHWVRQAPGKGLEWVARVIPNAGGTSYNQKFKGRFTLSVDNSKNTAYLQMNSLRAEDTAVYYCAREGIYWWGQGTLVTVSS VL: DIQMTQSPSSLSASVGDRVTITCRSSQSLVHSNGNTFLHWYQQKPGKAPKLLIYTVSNRFSGVPSRFSGSGSGTDFTLTISSLQPEDFATYFCSQTTHVPWTFGQGTKVEIKR
